Assay results reported in article PMC11246219.

Molecular target: PELI2 (UniProt Q9HAT8)
Assay: anti-FLAG co-IP, phospho-STING blot quantified

## STING (from UniProt Q86WV6) STING-5T>A
reference: STING only-T354, sites T354
  binding against the reference: lost
reference: STING only-T356, sites T356
  binding against the reference: lost
